In doi:10.1101/2021.02.27.433189:

target: AMPAR subunit GluA1, flip isoform (UniProt P19490)

Binder	receptor recovery from desensitization, τrec (GluA1 alone 162.6 ms)
ncAA-tagged TARP γ2 S44* with eGFP in the C-tail (natural protein, TCO*A (trans-cyclooct-2-en-L-lysine) at position 44) MGLFDRGVQMLLTTVGAFAAFSLMTIAVGTDYWLYSRGVCKTKKVSENETSKKNEEVMTHSGLWRTCCLEGNFKGLCKQIDHFPEDADYEADTAEYFLRAVRASSIFPILSVILLFMGGLCIAASEFYKTRHNIILSAGIFFVSAGLSNIIGIIVYISANAGDPSKSDSKKNSYSYGWSFYFGALSFIIAEMVGVLAVHMFIDRHKQLRATARATDYLQASAITRIPSYRYRYQRRSRSSSRSTEPSHSRDASPVGVKGFNTLPSTEISMYTLSRDPLKAATTPTATYNSDRDNSFLQVHNCIQKDSKDSLHANTANRRTTPV	62.3 ms
TARP γ8 with eGFP in the C-tail (natural protein) MESLKRWNEERGLWCEKGVQVLLTTIGAFAAFGLMTIAISTDYWLYTRALICNTTNLTAGDDGPPHRGGSGSSEKKDPGGLTHSGLWRICCLEGLKRGVCVKINHFPEDTDYDHDSAEYLLRVVRASSIFPILSAILLLLGGVCVAASRVYKSKRNIILGAGILFVAAGLSNIIGVIVYISANAGEPGPKRDEEKKNHYSYGWSFYFGGLSFILAEVIGVLAVNIYIERSREAHCQSRSDLLKAGGGAGGSGGSGPSAILRLPSYRFRYRRRSRSSSRGSSEASPSRDASPGGPGGPGFASTDISMYTLSRDPSKGSVAAGLASAGGGGGGAGVGAYGGAAGAAGGGGTGSERDRGSSAGFLTLHNAFPKEAASGVTVTVTGPPAAPAPAPPAPAAPAPGTLSKEAAASNTNTLNRKTTPV	40.9 ms
ncAA-tagged TARP γ8 S72* with eGFP in the C-tail (natural protein, TCO*A (trans-cyclooct-2-en-L-lysine) at position 72) MESLKRWNEERGLWCEKGVQVLLTTIGAFAAFGLMTIAISTDYWLYTRALICNTTNLTAGDDGPPHRGGSGKSEKKDPGGLTHSGLWRICCLEGLKRGVCVKINHFPEDTDYDHDSAEYLLRVVRASSIFPILSAILLLLGGVCVAASRVYKSKRNIILGAGILFVAAGLSNIIGVIVYISANAGEPGPKRDEEKKNHYSYGWSFYFGGLSFILAEVIGVLAVNIYIERSREAHCQSRSDLLKAGGGAGGSGGSGPSAILRLPSYRFRYRRRSRSSSRGSSEASPSRDASPGGPGGPGFASTDISMYTLSRDPSKGSVAAGLASAGGGGGGAGVGAYGGAAGAAGGGGTGSERDRGSSAGFLTLHNAFPKEAASGVTVTVTGPPAAPAPAPPAPAAPAPGTLSKEAAASNTNTLNRKTTPV	45.8 ms
TARP γ2 with eGFP in the C-tail (natural protein) MGLFDRGVQMLLTTVGAFAAFSLMTIAVGTDYWLYSRGVCKTKSVSENETSKKNEEVMTHSGLWRTCCLEGNFKGLCKQIDHFPEDADYEADTAEYFLRAVRASSIFPILSVILLFMGGLCIAASEFYKTRHNIILSAGIFFVSAGLSNIIGIIVYISANAGDPSKSDSKKNSYSYGWSFYFGALSFIIAEMVGVLAVHMFIDRHKQLRATARATDYLQASAITRIPSYRYRYQRRSRSSSRSTEPSHSRDASPVGVKGFNTLPSTEISMYTLSRDPLKAATTPTATYNSDRDNSFLQVHNCIQKDSKDSLHANTANRRTTPV	57.1 ms
